Measured values taken from patent publication US20240124575A1 (SIMCERE ZAIMING PHARMACEUTICAL, published 2024).
Like-named read-outs stand apart in the source and are kept apart here. Each block holds one binder with its values, some of them ahead of it.

Tests used:
[1] = biological target: T1, human CD33 on U937 cells (endogenous) (human, UniProt P20138 18-364); assay: FACS, U937 cells
T1 construct: whole, on cells
Description: The desired cells were expanded to a logarithmic growth phase in a T-75 cell culture flask. For adherent cells CHO-K1, the culture medium was removed by pipetting, and the cells were washed twice with a PBS buffer, digested with trypsin, and washed twice with a PBS buffer again after the digestion was stopped. For suspension cells U937, the medium supernatant was discarded by direct centrifugation, and the cell pellet was washed twice with PBS, and then incubated with a buffer containing human Fc Block (purchased from BD, Cat. No. 564220) for 15 min. After the cells obtained in the last step were subjected to cell counting, the cell pellet was resuspended to 2×10⁶ cells/mL with a blocking solution [PBS+2% (w/w) BSA] and added to a 96-well FACS reaction plate at 50 μL/well. The VHH-Fc antibody (a sample to be tested) was added at 50 μL/well, and the plate was incubated on ice for 2 h. […] After the plate was centrifuged and washed 5 times with a PBS buffer, the results were assayed and analyzed by FACS (FACS Canto™, purchased from BD Biosciences), so as to obtain the mean fluorescence intensity (MFI) of cells. Then, analysis was performed by software (GraphPad Prism8), data were fitted, and EC50 values were calculated.

[2] = biological target: T2, human CD33-His (extracellular domain Asp 18-His 259) (human, UniProt P20138 18-259); assay: ELISA, antigen coated
T2 construct: range 18-259; bought protein; also called hCD33-his; human CD33 protein; not shown: His tag
T2 sequence (P20138 18-259 limits assumed): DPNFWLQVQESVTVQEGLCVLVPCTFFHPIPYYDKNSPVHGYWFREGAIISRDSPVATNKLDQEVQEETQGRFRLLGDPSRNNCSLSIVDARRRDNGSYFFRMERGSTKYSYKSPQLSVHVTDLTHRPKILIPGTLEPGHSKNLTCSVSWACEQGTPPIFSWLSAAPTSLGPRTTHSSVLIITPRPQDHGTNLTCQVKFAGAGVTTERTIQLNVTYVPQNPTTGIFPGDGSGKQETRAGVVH
Description: (§1) In order to assay the binding activity of VHH-Fc to human CD33 protein, a human CD33-his protein (purchased from ACROBiosystems, Cat. No. CD3-H5226) was diluted with PBS to make a final concentration of 2 μg/mL, and then added into a 96-well ELISA plate at 100 μL/well. The plate was sealed with a plastic film and incubated at 4° C. overnight, washed twice with PBS the next day, and a blocking solution [PBS+2% (w/w) BSA] was added for blocking at room temperature for 2 h. The blocking solution was discarded, and VHH-Fc antibody or negative control antibody serially diluted from 100 nM was added at 50 μL/well. After incubation at 37° C. for 2 h, the plate was washed 3 times with PBS. A secondary antibody labeled with HRP (horseradish peroxidase) (purchased from Sigma, Cat. No. A0170) was added. After incubation for 1 h at 37° C., the plate was washed 5 times with PBS. A TMB substrate was added at 50 μL/well. After incubation at room temperature for 10 min, a stop solution (1.0 N HCl) was added at 50 μL/well. The OD450 nm values were read on an ELISA plate reader (Multimode Plate Reader, EnSight, purchased from Perkin Elmer). The assay results for the binding of the VHH-Fc to hCD33-his by ELISA are shown in FIGS. 7A and 7B and Tables 11 and 12. […] The IgG control was hIgG1, and the data in the table are OD450 nm values.

[3] = biological target: T2, human CD33-His (extracellular domain …); assay: ELISA, antigen coated; remark: listed apart in the source
Description: as §1

[4] = biological target: T3, human CD33-his protein (human, UniProt P20138 18-259); assay: competition ELISA, coated human CD33-his, vs Biotin-C33B904 at EC80; antibody 125.00 nM
T3 construct: range 18-259; bought protein; also called hCD33-his; recombinant human CD33-his; not shown: His tag
T3 sequence (P20138 18-259 limits assumed): as above
Description: as §1, with “The” for “In order to assay the binding activity of VHH-Fc to human CD33 protein, a human CD33-his protein (purchased from ACROBiosystems, Cat. No. CD3-H5226) was diluted with PBS to make a final concentration of 2 μg/mL, and then added into a 96-well ELISA plate at 100 μL/well. The”
ELISA plates were coated with 2 μg/mL human CD33-his protein according to the method in Example 5.1; the Biotin-C331B904 antibody was subjected to a gradient dilution from 15 μg/mL, and EC80 values (0.18 μg/mL) were calculated. […] OD_{450 nm} values were read using an ELISA plate reader (Insight, purchased from PerkinElmer). […]

T1 sequence (P20138 18-364): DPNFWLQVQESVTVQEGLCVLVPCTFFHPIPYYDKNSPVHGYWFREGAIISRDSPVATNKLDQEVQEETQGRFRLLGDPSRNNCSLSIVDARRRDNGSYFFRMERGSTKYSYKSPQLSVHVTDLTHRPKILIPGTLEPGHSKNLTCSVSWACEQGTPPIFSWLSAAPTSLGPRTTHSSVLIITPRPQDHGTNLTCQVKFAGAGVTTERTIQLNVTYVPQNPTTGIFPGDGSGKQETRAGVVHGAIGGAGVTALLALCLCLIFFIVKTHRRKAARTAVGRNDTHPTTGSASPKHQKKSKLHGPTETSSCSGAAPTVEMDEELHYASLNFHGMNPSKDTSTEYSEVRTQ

- EC50 [1]: 0.0126 µM
- Max MFI [1]: 682 MFI
- OD450 at 0.0001 nM [2]: 0.04 OD450
- OD450 at 0.001 nM [2]: 0.06 OD450
- OD450 at 0.01 nM [2]: 0.08 OD450
- OD450 at 0.1 nM [2]: 0.28 OD450
- OD450 at 1 nM [2]: 1.39 OD450
- OD450 at 10 nM [2]: 2.6 OD450
- OD450 at 100 nM [2]: 2.96 OD450
- OD450 at 0.0001 nM [3]: 0.04 OD450
- OD450 at 0.001 nM [3]: 0.05 OD450
- OD450 at 0.01 nM [3]: 0.14 OD450
- OD450 at 0.1 nM [3]: 0.53 OD450
- OD450 at 1 nM [3]: 1.92 OD450
- OD450 at 10 nM [3]: 2.55 OD450
- OD450 at 100 nM [3]: 2.61 OD450
B1: C33B904 hIgG1 (antibody, V domains shown)
VH: EVQLVESGGGLVQPGRSLRLSCAASGFTFDDYAMHWVRQAPGKGLEWVSGIGWSGGSIVYADSVKGRFTISRDNAKNSLYLQMNSLRAEDTALYYCAKDSPYGDFFDYWGQGTLVTVSS
VL: DIVMTQSPDSLAVSLGERATINCKSSQTVFYSSNNKNYLAWYQQKPGQPPKLLISWASTRKSGVPDRFSGSGSGTDFTLTVSSLQAEDVAVYYCQHYYSTPYTFGQGTKLEIKR
notes: intact human IgG1; variable regions from US20190382481A1; also called C33B3904; C331B904

- OD450 (Biotin-C33B904 signal) [4]: 0.16
B2: C33B904 (antibody, human IgG1, kappa, V domains shown)
VH: B1 VH
VL: B1 VL
notes: control antibody, intact human IgG1 form; variable regions from US20190382481A1; also called C33B904 hIgG1; C331B904
